T1: human NL1(–A+B)_(ECTO), immobilised for SPR (human, biotin on the Avitag (in vivo biotinylation by BirA); N-linked glycan at Asn300)
T1 chain: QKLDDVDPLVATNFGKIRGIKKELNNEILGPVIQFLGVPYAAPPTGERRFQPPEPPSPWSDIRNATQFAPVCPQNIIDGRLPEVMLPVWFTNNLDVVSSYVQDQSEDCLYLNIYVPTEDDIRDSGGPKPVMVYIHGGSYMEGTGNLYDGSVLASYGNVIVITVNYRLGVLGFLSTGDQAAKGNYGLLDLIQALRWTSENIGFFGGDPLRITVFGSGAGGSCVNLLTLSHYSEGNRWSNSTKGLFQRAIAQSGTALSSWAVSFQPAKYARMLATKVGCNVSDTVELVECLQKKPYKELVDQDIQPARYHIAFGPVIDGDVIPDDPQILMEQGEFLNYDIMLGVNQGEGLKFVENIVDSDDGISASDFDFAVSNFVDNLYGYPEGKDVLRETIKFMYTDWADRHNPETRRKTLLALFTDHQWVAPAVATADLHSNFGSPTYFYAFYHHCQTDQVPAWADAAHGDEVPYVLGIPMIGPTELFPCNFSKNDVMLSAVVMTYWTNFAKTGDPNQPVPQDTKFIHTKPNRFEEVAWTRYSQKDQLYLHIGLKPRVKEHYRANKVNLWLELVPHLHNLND

T2: human NL1(–A–B)_(ECTO) Arg450Cys, immobilised for SPR (human, biotin on the Avitag (in vivo biotinylation by BirA))
T2 chain: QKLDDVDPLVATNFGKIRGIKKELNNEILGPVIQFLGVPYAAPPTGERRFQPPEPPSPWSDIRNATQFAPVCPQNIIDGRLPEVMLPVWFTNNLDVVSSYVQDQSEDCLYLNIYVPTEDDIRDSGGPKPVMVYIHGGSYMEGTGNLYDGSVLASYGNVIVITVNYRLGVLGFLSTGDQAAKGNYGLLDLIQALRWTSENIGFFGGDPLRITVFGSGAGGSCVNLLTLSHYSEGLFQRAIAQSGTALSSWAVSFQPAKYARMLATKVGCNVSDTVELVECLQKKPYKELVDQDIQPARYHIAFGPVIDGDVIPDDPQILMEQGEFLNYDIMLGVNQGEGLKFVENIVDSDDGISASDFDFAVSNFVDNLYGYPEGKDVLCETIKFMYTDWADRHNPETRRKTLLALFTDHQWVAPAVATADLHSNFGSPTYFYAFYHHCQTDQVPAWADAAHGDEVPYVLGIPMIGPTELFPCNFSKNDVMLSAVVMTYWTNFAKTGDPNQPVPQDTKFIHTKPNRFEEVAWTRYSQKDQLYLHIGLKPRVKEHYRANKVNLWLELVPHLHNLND

T3: human NL1(–A–B)_(ECTO), biotinylated and immobilised for SPR (human, biotin on the Avitag (in vivo biotinylation by BirA))
T3 chain: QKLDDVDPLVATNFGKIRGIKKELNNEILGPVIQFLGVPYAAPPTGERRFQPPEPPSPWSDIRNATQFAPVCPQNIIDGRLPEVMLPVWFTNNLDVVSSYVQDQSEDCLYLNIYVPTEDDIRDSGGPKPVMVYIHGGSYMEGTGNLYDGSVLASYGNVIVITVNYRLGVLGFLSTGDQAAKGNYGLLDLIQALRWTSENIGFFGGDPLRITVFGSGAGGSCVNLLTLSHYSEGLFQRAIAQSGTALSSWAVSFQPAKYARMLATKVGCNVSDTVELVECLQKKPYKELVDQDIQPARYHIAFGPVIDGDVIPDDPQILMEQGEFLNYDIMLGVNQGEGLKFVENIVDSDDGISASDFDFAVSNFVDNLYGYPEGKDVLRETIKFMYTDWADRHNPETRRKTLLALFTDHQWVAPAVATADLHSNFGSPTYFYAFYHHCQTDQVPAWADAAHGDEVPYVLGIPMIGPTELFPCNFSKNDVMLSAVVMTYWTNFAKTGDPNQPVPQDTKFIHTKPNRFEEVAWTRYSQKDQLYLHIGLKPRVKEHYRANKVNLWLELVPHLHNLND


Legend:
Experiment in all cases: SPR
[1] = molecular target: T1, human NL1(–A+B)_(ECTO), immobilised for …
[2] = molecular target: human NL3(–A)_(ECTO) Arg451Cys, immobilised for SPR (human, UniProt Q9NZ94-1 38-636, –A: nothing between Asp152 and Asp193 | R451C, biotin on the Avitag (in vivo biotinylation by BirA))
[3] = molecular target: T2, human NL1(–A–B)_(ECTO) Arg450Cys, …
[4] = molecular target: T3, human NL1(–A–B)_(ECTO), biotinylated …

Chain of human NL3(–A)_(ECTO) Arg451Cys, immobilised for SPR (Q9NZ94 other isoform, or with tags, fused parts or gaps –A: nothing between Asp152 and Asp193 | R451C | R451C): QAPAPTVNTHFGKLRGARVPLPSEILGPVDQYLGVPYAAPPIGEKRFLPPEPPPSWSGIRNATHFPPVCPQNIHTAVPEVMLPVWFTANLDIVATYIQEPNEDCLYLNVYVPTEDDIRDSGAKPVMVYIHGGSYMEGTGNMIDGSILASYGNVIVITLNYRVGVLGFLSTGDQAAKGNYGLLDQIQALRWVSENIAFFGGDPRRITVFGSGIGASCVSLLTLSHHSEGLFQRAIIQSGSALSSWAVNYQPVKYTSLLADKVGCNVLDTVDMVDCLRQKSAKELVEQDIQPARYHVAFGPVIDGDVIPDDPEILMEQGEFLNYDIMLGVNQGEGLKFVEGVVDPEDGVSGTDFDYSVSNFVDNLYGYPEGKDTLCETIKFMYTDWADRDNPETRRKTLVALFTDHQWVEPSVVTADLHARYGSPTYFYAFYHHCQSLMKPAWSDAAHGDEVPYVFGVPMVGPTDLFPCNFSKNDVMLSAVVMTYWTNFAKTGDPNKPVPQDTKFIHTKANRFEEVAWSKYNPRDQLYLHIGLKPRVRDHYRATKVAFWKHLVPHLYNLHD

Row | Binder | Kd [1] | Kd [2] | Kd [3] | Kd [4]
1 | human MDGA2 extracellular domain (MDGA2_(ECTO); Gln21-Lys927) (domain or fragment) QGVYAPPTVRIVHSGLACNIEEERYSERVYTIREGETLELTCLVTGHPRPQIRWTKTAGSASDRFQDSSVFNETLRITNIQRHQGGRYYCKAENGLGSPAIKSIRVDVYYLDDPVVTVHQSIGEAKEQFYYERTVFLRCVANSNPPVRYSWRRGQEVLLQGSDKGVEIYEPFFTQGETKILKLKNLRPQDYANYSCIASVRNVCNIPDKMVSFRLSNKTASPSIKLLVDDPIVVNPGEAITLVCVTTGGEPAPSLTWVRSFGTLPEKTVLNGGTLTIPAITSDDAGTYSCIANNNVGNPAKKSTNIIVRALKKGRFWITPDPYHKDDNIQIGREVKISCQVEAVPSEELTFSWFKNGRPLRSSERMVITQTDPDVSPGTTNLDIIDLKFTDFGTYTCVASLKGGGISDISIDVNISSSTVPPNLTVPQEKSPLVTREGDTIELQCQVTGKPKPIILWSRADKEVAMPDGSMQMESYDGTLRIVNVSREMSGMYRCQTSQYNGFNVKPREALVQLIVQYPPAVEPAFLEIRQGQDRSVTMSCRVLRAYPIRVLTYEWRLGNKLLRTGQFDSQEYTEYAVKSLSNENYGVYNCSIINEAGAGRCSFLVTGKAYAPEFYYDTYNPVWQNRHRVYSYSLQWTQMNPDAVDRIVAYRLGIRQAGQQRWWEQEIKINGNIQKGELITYNLTELIKPEAYEVRLTPLTKFGEGDSTIRVIKYSAPVNPHLREFHCGFEDGNICLFTQDDTDNFDWTKQSTATRNTKYTPNTGPNADRSGSKEGFYMYIETSRPRLEGEKARLLSPVFSIAPKNPYGPTNTAYCFSFFYHMYGQHIGVLNVYLRLKGQTTIENPLWSSSGNKGQRWNEAHVNIYPITSFQLIFEGIRGPGIEGDIAIDDVSIAEGECAKQDLATK | 9.63 µM | – | – | –
2 | human β-neurexin-1 LNS6 domain lacking SS4 (β-NRX1_(LNS6)(–4); His85-Val265) (domain or fragment) not shown | 1.16 µM | 10.8 µM | 0.76 µM | –

Continued by falling Kd [1], values first:

Row | Kd [1] | Kd [2] | Kd [3] | Kd [4] | Binder
3 | 13.2 µM | – | – | 1.72 µM | human MDGA1 extracellular domain (MDGA1_(ECTO); Gln19-Lys925) (domain or fragment) QGVYAPAQAQIVHAGQACVVKEDNISERVYTIREGDTLMLQCLVTGHPRPQVRWTKTAGSASDKFQETSVFNETLRIERIARTQGGRYYCKAENGVGVPAIKSIRVDVQYLDEPMLTVHQTVSDVRGNFYQEKTVFLRCTVNSNPPARFIWKRGSDTLSHSQDNGVDIYEPLYTQGETKVLKLKNLRPQDYASYTCQVSVRNVCGIPDKAITFRLTNTTAPPALKLSVNETLVVNPGENVTVQCLLTGGDPLPQLQWSHGPGPLPLGALAQGGTLSIPSVQARDSGYYNCTATNNVGNPAKKTVNLLVRSMKNATFQITPDVIKESENIQLGQDLKLSCHVDAVPQEKVTYQWFKNGKPARMSKRLLVTRNDPELPAVTSSLELIDLHFSDYGTYLCMASFPGAPVPDLSVEVNISSETVPPTISVPKGRAVVTVREGSPAELQCEVRGKPRPPVLWSRVDKEAALLPSGLPLEETPDGKLRLERVSRDMSGTYRCQTARYNGFNVRPREAQVQLNVQFPPEVEPSSQDVRQALGRPVLLRCSLLRGSPQRIASAVWRFKGQLLPPPPVVPAAAEAPDHAELRLDAVTRDSSGSYECSVSNDVGSAACLFQVSAKAYSPEFYFDTPNPTRSHKLSKNYSYVLQWTQREPDAVDPVLNYRLSIRQLNQHNAVVKAIPVRRVEKGQLLEYILTDLRVPHSYEVRLTPYTTFGAGDMASRIIHYTEPINSPNLSDNTCHFEDEKICGYTQDLTDNFDWTRQNALTQNPKRSPNTGPPTDISGTPEGYYMFIETSRPRELGDRARLVSPLYNASAKFYCVSFFYHMYGKHIGSLNLLVRSRNKGALDTHAWSLSGNKGNVWQQAHVPISPSGPFQIIFEGVRGPGYLGDIAIDDVTLKKGECPRKQTDPNK
4 | 4.75 µM | 47.9 µM | 2.7 µM | 2.59 µM | human β-neurexin-1 LNS6 domain with SS4 (β-NRX1_(LNS6)(+4)) (domain or fragment) not shown

From publication PMC5563082 (2017)
